Assay results as given in patent US20140087995A1 (published 2014).
Numbered stars: 1 amine (or outer) side, 2 acyl side, 3 side chain; on linkers, the order of the positions; unused ones are H or OH. Bridge positions count the residues as written; N and C are the ends. Side chains are listed from the residue outwards. Ends that are not written are not given here. * marks the point of attachment. C20 diacid = O=C(O)CCCCCCCCCCCCCCCCCCC(=O)*; C18 diacid = O=C(O)CCCCCCCCCCCCCCCCC(=O)*; C16 diacid = O=C(O)CCCCCCCCCCCCCCC(=O)*; γGlu = O=C(O)[C@H](CCC(=O)[*:2])N[*:1]; C14 diacid = O=C(O)CCCCCCCCCCCCC(=O)*; AEEA = NCCOCCOCC(=O)O

Columns and labels:
rat calcitonin receptor [1] = molecular target: T1, rat calcitonin receptor (rat, UniProt P32214 25-516); assay: ratio of IC50 on rat calcitonin receptor (Assay VIII) to IC50 on rat amylin receptor (Assay VI)
T1 construct: whole, on cells; Used as membranes prepared from the transfected cells (Assay VIII); also called rCTR; rat calcitonin (a) receptor
T1 sequence (looked up): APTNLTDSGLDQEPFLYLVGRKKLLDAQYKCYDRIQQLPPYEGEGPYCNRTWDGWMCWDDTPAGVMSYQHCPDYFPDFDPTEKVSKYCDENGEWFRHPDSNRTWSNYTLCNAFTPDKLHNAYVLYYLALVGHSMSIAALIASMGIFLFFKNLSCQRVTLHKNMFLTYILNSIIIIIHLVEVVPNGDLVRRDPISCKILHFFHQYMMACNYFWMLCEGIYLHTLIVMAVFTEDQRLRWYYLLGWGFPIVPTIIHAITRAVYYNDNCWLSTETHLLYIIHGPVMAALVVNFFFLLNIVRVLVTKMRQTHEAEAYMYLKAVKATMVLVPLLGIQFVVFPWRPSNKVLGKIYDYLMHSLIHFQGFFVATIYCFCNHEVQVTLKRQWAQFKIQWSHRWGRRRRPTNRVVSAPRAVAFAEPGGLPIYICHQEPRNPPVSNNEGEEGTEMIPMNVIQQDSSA

[2] = molecular target: T2, human calcitonin receptor (human, UniProt P30988 25-474); assay: ratio of IC50 on human calcitonin receptor (Assay VII) to IC50 on human amylin receptor (Assay V)
T2 construct: whole, on cells; Used as membranes prepared from the transfected cells (Assay VII); also called hCTR; hCT
T2 sequence (looked up): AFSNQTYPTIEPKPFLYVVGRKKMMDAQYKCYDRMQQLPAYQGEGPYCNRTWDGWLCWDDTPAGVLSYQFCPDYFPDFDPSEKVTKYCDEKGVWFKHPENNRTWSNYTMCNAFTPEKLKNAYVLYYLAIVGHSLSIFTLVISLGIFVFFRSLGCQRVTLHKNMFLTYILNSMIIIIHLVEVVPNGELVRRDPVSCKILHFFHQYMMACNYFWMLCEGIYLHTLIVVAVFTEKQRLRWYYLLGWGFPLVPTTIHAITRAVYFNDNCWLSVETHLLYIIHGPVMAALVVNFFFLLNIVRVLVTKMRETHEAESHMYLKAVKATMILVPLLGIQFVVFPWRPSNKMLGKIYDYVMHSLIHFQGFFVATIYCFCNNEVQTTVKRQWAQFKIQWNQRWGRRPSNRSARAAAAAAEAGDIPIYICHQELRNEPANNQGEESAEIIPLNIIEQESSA
In short: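 Competition binding by SPA uses membrane preparations (35 ng/μL final) in pH 7.4 Hepes buffer with 1 mM CaCl2 and 5 mM MgCl₂. Incubation lasts 120 min at 25° C, and IC₅₀ comes from one-site fitting.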

rat calcitonin receptor [3] = molecular target: T1, rat calcitonin receptor; assay: SPA competition binding, displacement of 125I-calcitonin from membranes of BHK tk'ts 13 cells transfected with rat calcitonin receptor (Assay VIII)
[4] = molecular target: T3, rat amylin receptor (rat calcitonin receptor + rat RAMP 3) (rat, UniProt P32214 25-516; Q9JJ73 23-147); assay: SPA competition binding, displacement of 125I-rat amylin from membranes of BHK tk'ts 13 cells transfected with rat calcitonin receptor + rat RAMP 3 (Assay VI)
T3 construct: whole, on cells; Used as membranes prepared from the transfected cells (Assay VI); also called rAmylin-R; rat amylin 3(a) receptor
T3 sequence (looked up) 1: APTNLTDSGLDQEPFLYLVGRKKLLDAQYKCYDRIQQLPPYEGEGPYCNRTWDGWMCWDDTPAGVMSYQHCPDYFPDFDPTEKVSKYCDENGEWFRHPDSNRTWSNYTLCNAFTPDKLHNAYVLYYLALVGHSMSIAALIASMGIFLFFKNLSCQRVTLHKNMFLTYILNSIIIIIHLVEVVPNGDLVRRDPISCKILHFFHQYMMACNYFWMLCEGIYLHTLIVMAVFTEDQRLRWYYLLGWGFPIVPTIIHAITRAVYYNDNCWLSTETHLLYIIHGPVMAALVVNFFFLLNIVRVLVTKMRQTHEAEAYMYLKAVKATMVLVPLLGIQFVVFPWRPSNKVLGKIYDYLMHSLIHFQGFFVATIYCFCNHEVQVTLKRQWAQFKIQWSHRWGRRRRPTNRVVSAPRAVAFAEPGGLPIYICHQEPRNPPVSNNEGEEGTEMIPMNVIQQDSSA
T3 sequence (looked up) 2: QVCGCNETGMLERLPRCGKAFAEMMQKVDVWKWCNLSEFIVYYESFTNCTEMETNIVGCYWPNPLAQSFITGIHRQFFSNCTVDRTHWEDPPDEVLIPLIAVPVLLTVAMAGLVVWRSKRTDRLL

[5] = molecular target: T4, human calcitonin receptor (human, UniProt P30988 25-474); assay: cell-based or functional assay
T4 sequence (looked up): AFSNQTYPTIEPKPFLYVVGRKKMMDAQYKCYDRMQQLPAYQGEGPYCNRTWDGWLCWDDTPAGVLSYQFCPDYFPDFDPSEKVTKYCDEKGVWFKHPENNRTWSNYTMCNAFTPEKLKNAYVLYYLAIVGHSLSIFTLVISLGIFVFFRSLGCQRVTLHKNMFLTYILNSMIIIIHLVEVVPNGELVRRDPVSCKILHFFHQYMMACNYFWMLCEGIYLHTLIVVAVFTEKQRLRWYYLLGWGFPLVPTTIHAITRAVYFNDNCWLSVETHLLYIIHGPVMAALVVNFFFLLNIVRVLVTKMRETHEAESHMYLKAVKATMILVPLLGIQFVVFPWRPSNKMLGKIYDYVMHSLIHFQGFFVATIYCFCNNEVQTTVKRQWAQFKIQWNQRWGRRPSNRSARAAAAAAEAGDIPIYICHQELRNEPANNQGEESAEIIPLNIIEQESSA

Binder	Ratio hCT/hAmylin funct. [5]	further results
K([γGlu-γGlu-C20 diacid])CNTATCATQRLASFLRHSSPNFGAIPSSTNVGPETY-NH2 (disulfide 2-7; N-terminus assumed; SMILES CC[C@H](C)[C@H](NC(=O)[C@H](C)NC(=O)CNC(=O)[C@H](Cc1ccccc1)NC(=O)[C@H](CC(N)=O)NC(=O)[C@@H]1CCCN1C(=O)[C@H](CO)NC(=O)[C@H](CO)NC(=O)[C@H](Cc1c[nH]cn1)NC(=O)[C@H](CCCNC(=N)N)NC(=O)[C@H](CC(C)C)NC(=O)[C@H](Cc1ccccc1)NC(=O)[C@H](CO)NC(=O)[C@H](C)NC(=O)[C@H](CC(C)C)NC(=O)[C@H](CCCNC(=N)N)NC(=O)[C@H](CCC(N)=O)NC(=O)[C@@H](NC(=O)[C@H](C)NC(=O)[C@@H]1CSSC[C@H](NC(=O)[C@@H](N)CCCCNC(=O)CC[C@H](NC(=O)CC[C@H](NC(=O)CCCCCCCCCCCCCCCCCCC(=O)O)C(=O)O)C(=O)O)C(=O)N[C@@H](CC(N)=O)C(=O)N[C@@H]([C@@H](C)O)C(=O)N[C@@H](C)C(=O)N[C@@H]([C@@H](C)O)C(=O)N1)[C@@H](C)O)C(=O)N1CCC[C@H]1C(=O)N[C@@H](CO)C(=O)N[C@@H](CO)C(=O)N[C@H](C(=O)N[C@@H](CC(N)=O)C(=O)N[C@H](C(=O)NCC(=O)N1CCC[C@H]1C(=O)N[C@@H](CCC(=O)O)C(=O)N[C@H](C(=O)N[C@@H](Cc1ccc(O)cc1)C(N)=O)[C@@H](C)O)C(C)C)[C@@H](C)O, not restated for each compound; also called compound 120)	–	Ratio rCT/rAmylin binding (rat calcitonin receptor [1]): 868; Ratio hCT/hAmylin binding [2]: 45.3; IC50 (rat calcitonin receptor [3]): 140 nM; IC50 [4]: 0.161 nM
K([AEEA-AEEA-γGlu-C20 diacid])CNTATCATQRLANFLRHSSPNFGAIPSSTNVGPNTY-NH2 (disulfide 2-7 (inferred), also called compound 98)	19.5	–
K([γGlu-C20 diacid])CNTATCATQRLADFLRHSSPNFGAIPSSTNVGPRTY-NH2 (disulfide 2-7 (inferred))	24.9	–
K([γGlu-C18 diacid])CNTATCATQRLANFLRHSSPNFGAIPSSTNVGHNTY-NH2 (disulfide 2-7 (inferred)) [N^ε1-[(4S)-4-carboxy-4-(17-carboxyheptadecanoylamino)butanoyl]-[Arg17,Pro21,Pro27,His34]-h-amylin]	60.9	–
K([γGlu-C20 diacid])CNTATCATQRLAEFLRHSSPNFGAIPSSTNVGPRTY-NH2 (disulfide 2-7 (inferred))	17	–
K([γGlu-γGlu-C20 diacid])CNTATCATQRLAEFLRHSSPNFGAIPSSTNVGPRTY-NH2 (disulfide 2-7 (inferred), also called compound 110)	29.3	–
K([γGlu-γGlu-C20 diacid])CNTATCATQRLANFLRHSSPNFGAIPSSTPVGPRTY-NH2 (disulfide 2-7 (inferred))	26	–
K([γGlu-γGlu-C20 diacid])CNTATCATQRLADFLRHSSPNFGAIPSSTNVGPRTY-NH2 (disulfide 2-7 (inferred), also called compound 130)	44.9	–
K([γGlu-C14 diacid])CNTATCATQRLANFLRHSSPNFGAIPSSTNVGHNTY-NH2 (disulfide 2-7 (inferred)) [N^ε1-[(4S)-4-carboxy-4-(13-carboxytridecanoylamino)butanoyl]-[Arg17,Pro21,Pro27,His34]-h-amylin]	38.8	–
K([AEEA-AEEA-γGlu-C20 diacid])CNTATCATQRLANFLRHSSPNFGAIPSSTNVGHNTY-NH2 (disulfide 2-7 (inferred), also called compound 97)	33	–
K([AEEA-AEEA-γGlu-C20 diacid])CNTATCATQRLANFLRHSSPNFGAIPSSTNVGRNTY-NH2 (disulfide 2-7 (inferred), also called compound 95)	33	–
K([γGlu-γGlu-C20 diacid])CNTATCATQRLAEFLRHSSPNFGAIPSSTNVGHETY-NH2 (disulfide 2-7 (inferred))	15.8	–
K([AEEA-AEEA-γGlu-C20 diacid])CNTATCATQRLANFLRHSSPNFGAIPSSTPVGSNTY-NH2 (disulfide 2-7 (inferred), also called compound 96)	21	–
K([γGlu-C16 diacid])CNTATCATQRLANFLRHSSPNFGAIPSSTNVGHNTY-NH2 (disulfide 2-7 (inferred)) [N^ε1-[(4S)-4-carboxy-4-(15-carboxypentadecanoylamino)butanoyl]-[Arg17,Pro21,Pro27,His34]-h-amylin]	65.1	–
K([γGlu-γGlu-C20 diacid])CNTATCATQRLAEFLRHSSPNFGAIPSSTNVGPHTY-NH2 (disulfide 2-7 (inferred))	16.4	–
K([AEEA-C20 diacid])CNTATCATQRLANFLRHSSPNFGAIPSSTNVGHNTY-NH2 (disulfide 2-7 (inferred), also called compound 91) [N^ε1-[2-[2-[2-(19-carboxynonadecanoylamino)ethoxy]ethoxy]acetyl]-[Arg17,Pro21,Pro27,His34]-h-amylin]	36.9	–
K([γGlu-γGlu-C20 diacid])CNTATCATQRLAHFLRHSSPNFGAIPSSTNVGSNTY-NH2 (disulfide 2-7 (inferred), also called compound 92)	28	–
K([γGlu-C20 diacid])CNTATCATQRLAEFLRHSSPNFGAIPSSTNVGPRTY-NH2 (disulfide 2-7; N-terminus assumed; SMILES CC[C@H](C)[C@H](NC(=O)[C@H](C)NC(=O)CNC(=O)[C@H](Cc1ccccc1)NC(=O)[C@H](CC(N)=O)NC(=O)[C@@H]1CCCN1C(=O)[C@H](CO)NC(=O)[C@H](CO)NC(=O)[C@H](Cc1c[nH]cn1)NC(=O)[C@H](CCCNC(=N)N)NC(=O)[C@H](CC(C)C)NC(=O)[C@H](Cc1ccccc1)NC(=O)[C@H](CCC(=O)O)NC(=O)[C@H](C)NC(=O)[C@H](CC(C)C)NC(=O)[C@H](CCCNC(=N)N)NC(=O)[C@H](CCC(N)=O)NC(=O)[C@@H](NC(=O)[C@H](C)NC(=O)[C@@H]1CSSC[C@H](NC(=O)[C@@H](N)CCCCNC(=O)CC[C@H](NC(=O)CCCCCCCCCCCCCCCCCCC(=O)O)C(=O)O)C(=O)N[C@@H](CC(N)=O)C(=O)N[C@@H]([C@@H](C)O)C(=O)N[C@@H](C)C(=O)N[C@@H]([C@@H](C)O)C(=O)N1)[C@@H](C)O)C(=O)N1CCC[C@H]1C(=O)N[C@@H](CO)C(=O)N[C@@H](CO)C(=O)N[C@H](C(=O)N[C@@H](CC(N)=O)C(=O)N[C@H](C(=O)NCC(=O)N1CCC[C@H]1C(=O)N[C@@H](CCCNC(=N)N)C(=O)N[C@H](C(=O)N[C@@H](Cc1ccc(O)cc1)C(N)=O)[C@@H](C)O)C(C)C)[C@@H](C)O, not restated for each compound)	–	Ratio rCT/rAmylin binding (rat calcitonin receptor [1]): 45.5; Ratio hCT/hAmylin binding [2]: 38.6; IC50 (rat calcitonin receptor [3]): 15.4 nM; IC50 [4]: 0.339 nM
